Data reported in the supplement of paper PMC10567573.

B1: ATL3 (parent)
chain: YGLQGGMAFLDKRLQVKEHQHEEI

Variants of: B1
Assay: protein stability index of a GFP-peptide fusion (GPS, HEK-293T) (PSI 1-6); higher = more stable
Settings: c terminus: a fixed tail appended
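Further: lentivirally expressed fusions sorted by FACS into six bins by GFP to DsRed ratio, PSI derived from sequencing read proportions per bin multiplied by bin number.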

| Variant | protein stability index |
| --- | --- |
| YGLQGGMASLDKRLQVKEHQHEEI [F9S] | 4.49 |
| YGLQGGMAHLDKRLQVKEHQHEEI [F9H] | 4.06 |
| YGLQGGMAVLDKRLQVKEHQHEEI [F9V] | 4.23 |
| YGLQGGMAGLDKRLQVKEHQHEEI [F9G] | 4.45 |
| YGLQGGMADLDKRLQVKEHQHEEI [F9D] | 4.88 |
| YGLQGGMALLDKRLQVKEHQHEEI [F9L] | 3.84 |
| YGLQGGMATLDKRLQVKEHQHEEI [F9T] | 4.58 |
| YGLQGGMAKLDKRLQVKEHQHEEI [F9K] | 4.4 |
| YGLQGGMAYLDKRLQVKEHQHEEI [F9Y] | 1.91 |
| YGLQGGMAQLDKRLQVKEHQHEEI [F9Q] | 4.42 |
| YGLQGGMAPLDKRLQVKEHQHEEI [F9P] | 4.69 |
| YGLQGGMAELDKRLQVKEHQHEEI [F9E] | 5 |
| YGLQGGMANLDKRLQVKEHQHEEI [F9N] | 4.51 |
| YGLQGGMAMLDKRLQVKEHQHEEI [F9M] | 4.25 |
| YGLQGGMARLDKRLQVKEHQHEEI [F9R] | 3.79 |
| YGLQGGMACLDKRLQVKEHQHEEI [F9C] | 4.13 |
| YGLQGGMAALDKRLQVKEHQHEEI [F9A] | 4.3 |
| YGLQGGMAWLDKRLQVKEHQHEEI [F9W] | 2.26 |
| YGLQGGMAILDKRLQVKEHQHEEI [F9I] | 3.82 |
| YGLQGGMAFLDKRLAVKEHQHEEI [Q15A] | 3.14 |
| YGLQGGMAFLDKRLCVKEHQHEEI [Q15C] | 3.47 |
| YGLQGGMAFLDKRLFVKEHQHEEI [Q15F] | 2.65 |
| YGLQGGMAFLDKRLGVKEHQHEEI [Q15G] | 2.69 |
| YGLQGGMAFLDKRLHVKEHQHEEI [Q15H] | 2.75 |

| Variant | protein stability index |
| --- | --- |
| YGLQGGMAFLDKRLEVKEHQHEEI [Q15E] | 1.76 |
| YGLQGGMAFLDKRLDVKEHQHEEI [Q15D] | 2.4 |
| YGLQGGMHFLDKRLQVKEHQHEEI [A8H] | 1.4 |
| YGLQGGMQFLDKRLQVKEHQHEEI [A8Q] | 2.02 |
| YGLQGGMLFLDKRLQVKEHQHEEI [A8L] | 2.67 |
| YGLQGGMVFLDKRLQVKEHQHEEI [A8V] | 2.42 |
| YGLQGGMYFLDKRLQVKEHQHEEI [A8Y] | 2.68 |
| YGLQGGMGFLDKRLQVKEHQHEEI [A8G] | 2.81 |
| YGLQGGMSFLDKRLQVKEHQHEEI [A8S] | 2.09 |
| YGLQGGMWFLDKRLQVKEHQHEEI [A8W] | 3.35 |
| YGLQGGMDFLDKRLQVKEHQHEEI [A8D] | 3.79 |
| YGLQGGMRFLDKRLQVKEHQHEEI [A8R] | 1.74 |
| YGLQGGMCFLDKRLQVKEHQHEEI [A8C] | 2 |
| YGLQGGMIFLDKRLQVKEHQHEEI [A8I] | 2.71 |
| YGLQGGMTFLDKRLQVKEHQHEEI [A8T] | 3.38 |
| YGLQGGMFFLDKRLQVKEHQHEEI [A8F] | 3.46 |
| YGLQGGMEFLDKRLQVKEHQHEEI [A8E] | 2.91 |
| YGLQGGMNFLDKRLQVKEHQHEEI [A8N] | 2.33 |
| YGLQGGMPFLDKRLQVKEHQHEEI [A8P] | 2.93 |
| YGLQGGMKFLDKRLQVKEHQHEEI [A8K] | 1.71 |
| YGLQGEMAFLDKRLQVKEHQHEEI [G6E] | 2.41 |
| YGLQGKMAFLDKRLQVKEHQHEEI [G6K] | 2.46 |
| YGLQGLMAFLDKRLQVKEHQHEEI [G6L] | 3.04 |
| YGLQGTMAFLDKRLQVKEHQHEEI [G6T] | 1.73 |

| Variant | protein stability index |
| --- | --- |
| YGLQGQMAFLDKRLQVKEHQHEEI [G6Q] | 2.95 |
| YGLQGWMAFLDKRLQVKEHQHEEI [G6W] | 1.97 |
| YGLQGHMAFLDKRLQVKEHQHEEI [G6H] | 1.63 |
| YGLQGAMAFLDKRLQVKEHQHEEI [G6A] | 3.1 |
| YGLQGYMAFLDKRLQVKEHQHEEI [G6Y] | 2.34 |
| YGLQGCMAFLDKRLQVKEHQHEEI [G6C] | 2.21 |
| YGLQGIMAFLDKRLQVKEHQHEEI [G6I] | 2.54 |
| YGLQGSMAFLDKRLQVKEHQHEEI [G6S] | 2.13 |
| YGLQGNMAFLDKRLQVKEHQHEEI [G6N] | 2.32 |
| YGLQGPMAFLDKRLQVKEHQHEEI [G6P] | 2.65 |
| YGLQGMMAFLDKRLQVKEHQHEEI [G6M] | 2.26 |
| YGLQGRMAFLDKRLQVKEHQHEEI [G6R] | 2.85 |
| YGLQGDMAFLDKRLQVKEHQHEEI [G6D] | 2.31 |
| YGLQGVMAFLDKRLQVKEHQHEEI [G6V] | 2.03 |
| YGLQKGMAFLDKRLQVKEHQHEEI [G5K] | 2.4 |
| YGLQRGMAFLDKRLQVKEHQHEEI [G5R] | 2.39 |
| YGLQDGMAFLDKRLQVKEHQHEEI [G5D] | 2.34 |
| YGLQNGMAFLDKRLQVKEHQHEEI [G5N] | 2.44 |
| YGLQHGMAFLDKRLQVKEHQHEEI [G5H] | 2.5 |
| YGLQEGMAFLDKRLQVKEHQHEEI [G5E] | 3.15 |
| YGLQVGMAFLDKRLQVKEHQHEEI [G5V] | 2.28 |
| YGLQIGMAFLDKRLQVKEHQHEEI [G5I] | 2.04 |
| YGLQQGMAFLDKRLQVKEHQHEEI [G5Q] | 2.73 |
| YGLQPGMAFLDKRLQVKEHQHEEI [G5P] | 2.65 |

| Variant | protein stability index |
| --- | --- |
| YGLQLGMAFLDKRLQVKEHQHEEI [G5L] | 2.39 |
| YGLQSGMAFLDKRLQVKEHQHEEI [G5S] | 2.25 |
| YGLQFGMAFLDKRLQVKEHQHEEI [G5F] | 1.82 |
| YGLQTGMAFLDKRLQVKEHQHEEI [G5T] | 3.18 |
| YGLQYGMAFLDKRLQVKEHQHEEI [G5Y] | 2.66 |
| YGLQMGMAFLDKRLQVKEHQHEEI [G5M] | 2.1 |
| YGLQGGMAFLDKRPQVKEHQHEEI [L14P] | 3.04 |
| YGLQGGMAFLDKREQVKEHQHEEI [L14E] | 2.55 |
| YGLQGGMAFLDKRCQVKEHQHEEI [L14C] | 3.61 |
| YGLQGGMAFLDKRMQVKEHQHEEI [L14M] | 2.07 |
| YGLQGGMAFLDKRVQVKEHQHEEI [L14V] | 2.45 |
| YGLQGGMAFLDKRYQVKEHQHEEI [L14Y] | 3.4 |
| YGLQGGMAFLDKRHQVKEHQHEEI [L14H] | 2.04 |
| YGLQGGMAFLDKRFQVKEHQHEEI [L14F] | 2.82 |
| YGLQGGMAFLDKRQQVKEHQHEEI [L14Q] | 1.52 |
| YGLQGGMAFLDKRKQVKEHQHEEI [L14K] | 2.1 |
| YGLQGGMAFLDKRAQVKEHQHEEI [L14A] | 3.51 |
| YGLQGGMAFLDKRDQVKEHQHEEI [L14D] | 2.16 |
| YGLQGGMAFLDKRGQVKEHQHEEI [L14G] | 3.93 |
| YGLQGGMAFLDKRTQVKEHQHEEI [L14T] | 3.17 |
| YGLQGGMAFLDKRNQVKEHQHEEI [L14N] | 1.77 |
| YGLQGGMAFLDKRIQVKEHQHEEI [L14I] | 2.63 |
